Measured values published in publication PMC4211651.

Molecular target: native porcine cardiac thin filaments (F-actin plus regulatory proteins, troponin, and tropomyosin) (porcine) (UniProt P42639)
Experiment: co-sedimentation

| Kd [nM] | Substance |
| --- | --- |
| 2200 | human cardiac myosin binding protein-C N-terminal domains C0C1 (domain or fragment) |
| 2200 | mouse cardiac myosin binding protein-C N-terminal domains C0C1 (domain or fragment) |
